In the test the target is T cell receptor subunit CD3ζ (human) (human (endogenous in primary CD4+ T cells)).

Fold downregulation of cell surface CD3 relative to ΔNef, transduced primary huCD4+ T cells, flow cytometry (Fig. 5B) data for two substances are collected here from paper PMC12724223.

With “SIVmac239 I123L L146F Nef (natural protein)”, the fold downregulation of cell surface CD3 relative to ΔNef, transduced primary huCD4+ T cells, flow cytometry (Fig. 5B) turned out to be 2.7 fold.

Consider SIVmac239 WT Nef (natural protein), for which the fold downregulation of cell surface CD3 relative to ΔNef, transduced primary huCD4+ T cells, flow cytometry (Fig. 5B) worked out at 15.2 fold.
